Test results as given in US5492821A, “Stabilized polyacrylic saccharide protein conjugates” (Cargill, Inc., priority 1991, dated 1996).

Legend:
[1] = substrate: C[C@H](NC(=O)CCC(=O)O)C(=O)N[C@@H](C)C(=O)N1CCC[C@H]1C(=O)N[C@@H](Cc1ccccc1)C(=O)Nc1ccc([N+](=O)[O-])cc1; assay: Km and kcat of enzyme, Table 1; type: biochemical; conditions: other: 0.05M sodium phosphate buffer at pH 8 containing 10% methanol
Description: (§1) The yield of the active enzyme was determined by comparison of the relative activity of the native trypsin and the trypsin-polymer conjugate for N-succinyl-Ala-Ala-Pro-Phe p-nitroanilide as the substrate in 0.05M sodium phosphate buffer at pH 8 containing 10% methanol.
The procedure of EXAMPLE 8 (a) (i) was repeated in every essential detail except that Carlsberg-subtilisin was used instead of trypsin.

[2] = substrate: C[C@H](NC(=O)CCC(=O)O)C(=O)N[C@@H](C)C(=O)N1CCC[C@H]1C(=O)N[C@@H](Cc1ccccc1)C(=O)Nc1ccc([N+](=O)[O-])cc1; assay: Km and kcat of enzyme, Table 1; type: biochemical; conditions: other: 0.05M sodium phosphate buffer at pH 8 containing 10% methanol; remark: listed apart in the source
Description: as §1
The procedure of EXAMPLE 8 (a) (i) was repeated in every essential detail except that BPN'-subtilisin was used instead of trypsin.

Protein	Km [1] [µM]	kcat [1] [s⁻¹]	Km [2] [µM]	kcat [2] [s⁻¹]
Carlsberg-subtilisin (native) (Bacillus licheniformis) (protein) AQTVPYGIPLIKADKVQAQGFKGANVKVAVLDTGIQASHPDLNVVGGASFVAGEAYNTDGNGHGTHVAGTVAALDNTTGVLGVAPSVSLYAVKVLNSSGSGSYSGIVSGIEWATTNGMDVINMSLGGASGSTAMKQAVDNAYAKGVVVVAAAGNSGSSGNTNTIGYPAKYDSVIAVGAVDSNSNRASFSSVGAELEVMAPGAGVYSTYPTNTYATLNGTSMASPHVAGAAALILSKHPNLSASQVRNRLSSTATYLGSSFYYGKGLINVEAAAQ	251	420		
BPN'-subtilisin (native) (Bacillus amyloliquefaciens) (protein) AQSVPYGVSQIKAPALHSQGYTGSNVKVAVIDSGIDSSHPDLKVAGGASMVPSETNPFQDNNSHGTHVAGTVAALNNSIGVLGVAPSASLYAVKVLGADGSGQYSWIINGIEWAIANNMDVINMSLGGPSGSAALKAAVDKAVASGVVVVAAAGNEGTSGSSSTVGYPGKYPSVIAVGAVDSSNQRASFSSVGPELDVMAPGVSIQSTLPGNKYGAYNGTSMASPHVAGAAALILSKHPNWTNTQVRSSLENTTTKLGDSFYYGKGLINVQAAAQ			240	83
